Results: paper PMC9482650, “Quantitative fragmentomics allow affinity mapping of interactomes” (Nature Communications, 2022)
Each block holds one binder with its values, some of them ahead of it.

Experiments:
Experiment in all cases: holdup assay
Parameters in all cases: key: below the threshold = too weak to quantify, mostly under pKd 3.1 to 4
LAP2, Q96RT1 = target: LAP2, Q96RT1
RHPN1, Q8TCX5 = target: T1, RHPN1, Q8TCX5
T1 sequence (Q8TCX5 508-602, limits assumed, looked up): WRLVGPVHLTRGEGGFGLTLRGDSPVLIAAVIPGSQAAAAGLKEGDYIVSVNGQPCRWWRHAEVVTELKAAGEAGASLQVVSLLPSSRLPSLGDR

SHANK1, Q9Y566 = target: T2, SHANK1, Q9Y566
T2 sequence (Q9Y566 658-767, limits assumed, looked up): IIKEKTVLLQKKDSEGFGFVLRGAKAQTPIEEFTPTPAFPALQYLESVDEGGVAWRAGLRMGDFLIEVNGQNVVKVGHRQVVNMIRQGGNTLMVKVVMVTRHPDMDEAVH

TJP2_1, Q9UDY2 = target: TJP2_1, Q9UDY2
Sequence of TJP2_1, Q9UDY2 (Q9UDY2 24-128): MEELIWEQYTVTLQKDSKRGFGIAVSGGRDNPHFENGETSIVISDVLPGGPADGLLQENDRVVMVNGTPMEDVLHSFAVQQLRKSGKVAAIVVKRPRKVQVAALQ

LIMK2, P53671 = target: LIMK2, P53671
Sequence of LIMK2, P53671 (P53671 143-248): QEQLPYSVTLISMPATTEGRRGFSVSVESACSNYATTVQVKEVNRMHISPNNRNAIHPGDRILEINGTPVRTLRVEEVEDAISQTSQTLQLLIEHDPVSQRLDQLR

FRMPD2_3, Q68DX3 = target: FRMPD2_3, Q68DX3
Sequence of FRMPD2_3, Q68DX3 (Q68DX3 1073-1166): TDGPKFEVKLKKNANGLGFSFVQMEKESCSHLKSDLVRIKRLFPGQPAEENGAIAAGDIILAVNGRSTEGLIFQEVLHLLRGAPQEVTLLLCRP

NHERF3_3, Q5T2W1 = target: T3, NHERF3_3, Q5T2W1
T3 sequence (Q5T2W1 238-333, limits assumed, looked up): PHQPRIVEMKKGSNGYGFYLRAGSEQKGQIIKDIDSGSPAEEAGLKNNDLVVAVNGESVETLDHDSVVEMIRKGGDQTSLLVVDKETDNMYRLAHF

NHERF4_2, Q86UT5 = target: NHERF4_2, Q86UT5
Sequence of NHERF4_2, Q86UT5 (Q86UT5 220-308): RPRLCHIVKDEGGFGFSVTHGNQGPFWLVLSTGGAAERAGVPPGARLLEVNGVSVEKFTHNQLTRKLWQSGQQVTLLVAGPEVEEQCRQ

LNX2_3, Q8N448 = target: T4, LNX2_3, Q8N448
T4 sequence (Q8N448 463-564, limits assumed, looked up): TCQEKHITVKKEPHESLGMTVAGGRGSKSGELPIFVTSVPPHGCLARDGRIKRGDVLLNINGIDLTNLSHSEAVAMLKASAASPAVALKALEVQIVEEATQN

NHERF3_1, Q5T2W1 = target: T5, NHERF3_1, Q5T2W1
T5 sequence (Q5T2W1 4-100, limits assumed, looked up): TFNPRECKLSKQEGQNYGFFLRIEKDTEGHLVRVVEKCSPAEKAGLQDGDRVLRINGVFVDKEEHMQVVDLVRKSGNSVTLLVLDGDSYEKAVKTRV

TJP3_3, O95049 = target: T6, TJP3_3, O95049
T6 sequence (O95049 375-456, limits assumed, looked up): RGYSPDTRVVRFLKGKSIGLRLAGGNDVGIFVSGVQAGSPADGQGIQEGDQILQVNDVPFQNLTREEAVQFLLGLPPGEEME

GRIP2_6, Q9C0E4 = target: GRIP2_6, Q9C0E4
Sequence of GRIP2_6, Q9C0E4 (Q9C0E4 648-740): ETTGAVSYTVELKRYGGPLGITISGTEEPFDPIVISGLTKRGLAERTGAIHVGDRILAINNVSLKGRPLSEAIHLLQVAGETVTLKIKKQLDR

APBA3_1, O96018 = target: T7, APBA3_1, O96018
T7 sequence (O96018 389-490, limits assumed, looked up): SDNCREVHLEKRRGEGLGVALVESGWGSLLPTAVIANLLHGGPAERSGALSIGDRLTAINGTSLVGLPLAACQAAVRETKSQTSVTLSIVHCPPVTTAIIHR

Inadl_8, Q8NI35 = target: Inadl_8, Q8NI35
Sequence of Inadl_8, Q8NI35 (Q8NI35 1425-1530): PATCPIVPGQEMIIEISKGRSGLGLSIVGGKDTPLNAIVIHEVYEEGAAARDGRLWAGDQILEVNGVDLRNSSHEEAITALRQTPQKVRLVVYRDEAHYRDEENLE

DLG3_3, Q92796 = target: T8, DLG3_3, Q92796
T8 sequence (Q92796 374-475, limits assumed, looked up): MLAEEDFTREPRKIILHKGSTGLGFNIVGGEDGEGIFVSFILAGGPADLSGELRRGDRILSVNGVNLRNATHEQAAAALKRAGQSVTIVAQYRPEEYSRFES

LRRC7, Q96NW7 = target: T9, LRRC7, Q96NW7
T9 sequence (Q96NW7 1440-1537, limits assumed, looked up): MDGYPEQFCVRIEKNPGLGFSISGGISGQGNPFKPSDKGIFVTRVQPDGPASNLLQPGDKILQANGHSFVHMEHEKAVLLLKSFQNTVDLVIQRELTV

DLG1_3, Q12959 = target: DLG1_3, Q12959
Sequence of DLG1_3, Q12959 (Q12959 457-571): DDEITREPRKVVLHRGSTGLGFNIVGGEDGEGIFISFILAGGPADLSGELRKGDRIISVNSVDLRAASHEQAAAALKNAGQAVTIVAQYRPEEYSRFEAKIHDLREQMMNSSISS

DLG4_1, P78352 = target: DLG4_1, P78352
Sequence of DLG4_1, P78352 (P78352 62-152): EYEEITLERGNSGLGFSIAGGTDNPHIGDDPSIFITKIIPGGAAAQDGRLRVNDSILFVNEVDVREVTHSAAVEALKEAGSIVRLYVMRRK

PDZD7_3, Q9H5P4 = target: T10, PDZD7_3, Q9H5P4
T10 sequence (Q9H5P4 857-944, limits assumed, looked up): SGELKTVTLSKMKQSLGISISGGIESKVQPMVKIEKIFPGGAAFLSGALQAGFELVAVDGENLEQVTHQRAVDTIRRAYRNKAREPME

CASK, O14936 = target: CASK, O14936
Sequence of CASK, O14936 (O14936 487-570): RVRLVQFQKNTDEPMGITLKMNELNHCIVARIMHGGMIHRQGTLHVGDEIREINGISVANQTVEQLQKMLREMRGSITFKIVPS

Inadl_4, Q8NI35 = target: Inadl_4, Q8NI35
Sequence of Inadl_4, Q8NI35 (Q8NI35 547-651): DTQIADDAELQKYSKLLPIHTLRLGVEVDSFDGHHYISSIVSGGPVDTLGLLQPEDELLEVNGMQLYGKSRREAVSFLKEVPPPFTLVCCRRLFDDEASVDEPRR

NHERF2_2, Q15599 = target: NHERF2_2, Q15599
Sequence of NHERF2_2, Q15599 (Q15599 142-238): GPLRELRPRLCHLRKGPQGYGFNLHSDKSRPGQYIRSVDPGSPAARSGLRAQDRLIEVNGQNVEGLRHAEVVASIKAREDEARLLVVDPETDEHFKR

GRIP2_3, Q9C0E4 = target: GRIP2_3, Q9C0E4
Sequence of GRIP2_3, Q9C0E4 (Q9C0E4 238-339): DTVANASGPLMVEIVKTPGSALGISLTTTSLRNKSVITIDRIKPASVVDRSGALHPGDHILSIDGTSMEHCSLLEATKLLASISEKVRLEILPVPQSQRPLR

LNX1_1, Q8TBB1 = target: LNX1_1, Q8TBB1
Sequence of LNX1_1, Q8TBB1 (Q8TBB1 261-371): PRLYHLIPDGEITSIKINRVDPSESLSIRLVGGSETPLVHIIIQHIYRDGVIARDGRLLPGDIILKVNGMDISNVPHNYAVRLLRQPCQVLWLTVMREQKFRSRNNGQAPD

GOPC, Q9HD26 = target: GOPC, Q9HD26
APBA1_2, Q02410 = target: T11, APBA1_2, Q02410
T11 sequence (Q02410 742-832, limits assumed, looked up): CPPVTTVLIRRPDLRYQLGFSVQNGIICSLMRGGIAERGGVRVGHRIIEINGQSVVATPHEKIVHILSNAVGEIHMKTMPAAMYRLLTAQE

FRMPD3, Q5JV73 = target: FRMPD3, Q5JV73
Sequence of FRMPD3, Q5JV73 (Q5JV73 12-100): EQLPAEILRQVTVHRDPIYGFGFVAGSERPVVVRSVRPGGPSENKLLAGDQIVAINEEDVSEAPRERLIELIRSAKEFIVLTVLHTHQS

[1] = plain residues with an end cap or a label only (N-terminal biotin on a linker: ado-ado)
[2] = plain residues with an end cap or a label only (N-terminal biotin on a linker: ahx)

Sequence of LAP2, Q96RT1 (Q96RT1 other isoform, or with tags, fused parts or gaps): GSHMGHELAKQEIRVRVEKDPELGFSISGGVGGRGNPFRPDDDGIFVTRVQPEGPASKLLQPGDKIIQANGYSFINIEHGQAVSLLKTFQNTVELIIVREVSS

- pKd (LAP2, Q96RT1; [1]): below the threshold
- pKd (RHPN1, Q8TCX5; [1]): 4.19
- pKd (SHANK1, Q9Y566; [1]): 4.55
- pKd (TJP2_1, Q9UDY2; [1]): below the threshold
- pKd (LIMK2, P53671; [1]): below the threshold
- pKd (FRMPD2_3, Q68DX3; [1]): below the threshold
- pKd (NHERF3_3, Q5T2W1; [1]): below the threshold
- pKd (NHERF4_2, Q86UT5; [1]): below the threshold
- pKd (LNX2_3, Q8N448; [1]): below the threshold
- pKd (NHERF3_1, Q5T2W1; [1]): 4.72
- pKd (TJP3_3, O95049; [1]): below the threshold
- pKd (GRIP2_6, Q9C0E4; [1]): below the threshold
- pKd (APBA3_1, O96018; [1]): below the threshold
- pKd (Inadl_8, Q8NI35; [1]): below the threshold
- pKd (DLG3_3, Q92796; [1]): below the threshold
- pKd (LRRC7, Q96NW7; [1]): 3.61
- pKd (DLG1_3, Q12959; [1]): 3.52
- pKd (DLG4_1, P78352; [1]): below the threshold
- pKd (PDZD7_3, Q9H5P4; [1]): 4.72
- pKd (CASK, O14936; [1]): below the threshold
- pKd (Inadl_4, Q8NI35; [1]): below the threshold
- pKd (NHERF2_2, Q15599; [1]): 4.63
- pKd (GRIP2_3, Q9C0E4; [1]): below the threshold
- pKd (LNX1_1, Q8TBB1; [1]): 3.8
- pKd (GOPC, Q9HD26; [1]): below the threshold
- pKd (APBA1_2, Q02410; [1]): 3.5
- pKd (FRMPD3, Q5JV73; [1]): below the threshold
Binder: EEPEERHTEL [CES2, O00748]

- pKd (LAP2, Q96RT1; [2]): 4.09
- pKd (RHPN1, Q8TCX5; [2]): 4.59
- pKd (SHANK1, Q9Y566; [2]): 3.57
- pKd (TJP2_1, Q9UDY2; [2]): 3.68
- pKd (LIMK2, P53671; [2]): below the threshold
- pKd (FRMPD2_3, Q68DX3; [2]): 3.97
- pKd (NHERF3_3, Q5T2W1; [2]): below the threshold
- pKd (NHERF4_2, Q86UT5; [2]): below the threshold
- pKd (LNX2_3, Q8N448; [2]): below the threshold
- pKd (NHERF3_1, Q5T2W1; [2]): 4.07
- pKd (TJP3_3, O95049; [2]): 3.62
- pKd (GRIP2_6, Q9C0E4; [2]): below the threshold
- pKd (APBA3_1, O96018; [2]): below the threshold
- pKd (Inadl_8, Q8NI35; [2]): 3.65
- pKd (DLG3_3, Q92796; [2]): 3.87
- pKd (LRRC7, Q96NW7; [2]): 3.76
- pKd (DLG1_3, Q12959; [2]): 3.68
- pKd (DLG4_1, P78352; [2]): 4.68
- pKd (PDZD7_3, Q9H5P4; [2]): 4.97
- pKd (CASK, O14936; [2]): below the threshold
- pKd (Inadl_4, Q8NI35; [2]): below the threshold
- pKd (NHERF2_2, Q15599; [2]): below the threshold
- pKd (GRIP2_3, Q9C0E4; [2]): below the threshold
- pKd (LNX1_1, Q8TBB1; [2]): 4.17
- pKd (GOPC, Q9HD26; [2]): 3.99
- pKd (APBA1_2, Q02410; [2]): 3.9
- pKd (FRMPD3, Q5JV73; [2]): below the threshold
Binder: QGRWDHETIV [TMEM215, Q68D42]
